Assay results taken from publication PMC12700550, “DLL4^+ neutrophils promote Notch1-mediated endothelial PANoptosis to exacerbate acute lung injury in sepsis” (The Journal of Clinical Investigation, 2025).
“And” between values parts separate entries of the source, which are not always exact repeats. Equal entries are not always repeated.

Key:
ZBP1 = ZBP1 protein in PVECs cocultured with neutrophils, Western blot; format: cell-based, mouse; conditions: for ZBP1 protein level (Figure 4F): 10 μM peptide, 16 h, individual replicates
Protocol: Wild-type PVECs (5 × 10^5) were cocultured with sorted DLL4^+ neutrophils (5 × 10^5) or DLL4^– neutrophils (5 × 10^5) and then treated with different dosages of peptides or 10 μM DAPT (Thermo Fisher Scientific), 10 μM NDI (GenScript), or 10 μM NDI scramble (GenScript). Notch1-knockdown PVECs (5 × 10^5) were cocultured with sorted DLL4^+ neutrophils (5 × 10^5). After 16 hours, neutrophils were washed away by PBS, and PVECs were collected for further experiments. Cell viability was evaluated by propidium iodide staining using the FITC Annexin V Apoptosis Detection Kit I (catalog 556547, BD Pharmingen). Cell death was quantified as the percentage of propidium iodide–positive cells by flow cytometry.
PVECs and lung tissue were collected in previous steps. Whole-cell proteins were extracted, and the protein concentration was measured using an ABC protein assay kit (catalog 5000002, Bio-Rad). Proteins were separated using NuPAGE 4%–12% Bis-Tris gels (Invitrogen), transferred to PVDF membranes, and immunoblotted with the antibodies indicated in the figure legends according to the manufacturer’s recommendations. The ZBP1 antibody (catalog PA5-20455; 1:1,000) used in this study was obtained from Thermo Fisher Scientific, and the c-GSDMD (catalog 10137S; 1:250), GSDMD (catalog 39754S; 1:1000), c-caspase-3 (catalog 9661L; 1:250), caspase-3 (catalog 9662S; 1:1,000), p-MLKL (catalog 37333S; 1:250), MLKL (catalog 37705S; 1:1,000), N1ICD (c-Notch1) (catalog 4147S; 1:250), and Notch1 (catalog 3608S; 1:1,000) antibodies were obtained from Cell Signaling Technology. GAPDH (catalog 60004-1-Ig; 1:10,000) and β-actin (catalog A5441, Sigma-Aldrich; 1:5,000) were obtained from ProteinTech. After the blots were incubated with primary antibodies, the membranes were washed 3 times, and the blots were subsequently incubated with the corresponding fluorescent secondary antibody (LI-COR). Bands were detected using an Odyssey FC Dual-Mode Imaging system 2800 (LI-COR).

[1] = tested on: DLL4 expression on WT BMDNs; assay: Frequency of DLL4^+ neutrophils (Ly6G^+DLL4^+), WT mouse BMDNs, flow cytometry; format: cell-based; conditions: for percentage of DLL4^+ neutrophils (Figure 1C): eCIRP 1 μg/mL, WT BMDNs 1 × 10^6/mL
Description: Mice were anesthetized by 2% isoflurane inhalation, and the femora and tibiae were dissected. The bone marrow was flushed out with calcium- and magnesium-free HBSS using a 25-gauge needle into a Petri dish. Suspensions of cells were filtered through a 70 μm cell strainer (Corning), and bone marrow–derived neutrophils (BMDNs) were purified by negative selection using the EasySep mouse neutrophil enrichment kit (catalog 19762, STEMCELL Technologies). The purity of the sorted neutrophils was assessed by staining of the cells with APC-Ly6G antibody (clone 1A8, BioLegend) using a BD LSRFortessa flow cytometer (BD Biosciences).
In the time course experiments, BMDNs (1 × 10^6) were stimulated with eCIRP (1 μg/mL) for 2, 4, 6, and 12 hours. In the dose-response experiments, BMDNs (1 × 10^6) were treated with 0, 0.2, 0.5, or 1.0 μg/mL eCIRP for 12 hours. Single-cell suspensions were then stained with APC-conjugated anti–mouse Ly6G (clone 1A8, catalog 127614, BioLegend) and PE-conjugated anti-DLL4 (clone HMD4-1, catalog 130807, BioLegend), and analyzed by flow cytometry (BD LSRFortessa, BD Biosciences) to detect DLL4^+ neutrophils (Ly6G^+DLL4^+). Unstained cells were used to set voltages, and single-color controls were applied for compensation adjustment. Two hundred fifty microliters of whole blood obtained from sham, CLP, and PBS- or NDI-treated mice was taken into Falcon 15 mL conical tubes, and 5 mL red blood cell (RBC) lysis buffer (BD Biosciences) was added. After 1–2 minutes of incubation at room temperature, the samples were centrifuged at 300g for 10 minutes. Supernatants were aspirated, and the cell pellet was washed by suspension of the cells in 5 mL fluorescence-activated cell sorting (FACS) buffer containing 2% fetal bovine serum and centrifuged at 300g for 10 minutes. The supernatant was discarded, and the cell pellet was dissolved in […] FACS buffer. Lung tissues were finely diced using a sterile surgical blade and suspended in Ca^++- and Mg^++-free Hanks balanced salt solution (HBSS; Corning). Tissue digestion was performed in HBSS containing 100 U/mL of collagenase I (Worthington Biochemical) and 20 U/mL DNase I (Worthington Biochemical) at 37°C for 30 minutes with periodic shaking. Digested tissue fragments were crushed with a 10 mL syringe plunger and passed through a 70 μm cell strainer (Corning). Lysis of RBCs in lung cell suspensions was conducted using RBC lysis buffer (BD Biosciences). The isolated lung cells were counted using a microscope (Eclipse TS100, Nikon). To detect mouse DLL4^+ neutrophils, single-cell suspensions were stained with anti-mouse APC-Ly6G (clone 1A8, catalog 127614, BioLegend) and PE-DLL4 (clone HMD4-1, catalog 130807, BioLegend) and assessed for the detection of DLL4^+ neutrophils (Ly6G^+DLL4^+) by flow cytometry (BD LSRFortessa, BD Biosciences). Unstained cells were used to establish the flow cytometer voltage setting, and single-color positive controls were used to adjust the compensation. The acquisition was performed on 50,000 events using a BD LSRFortessa flow cytometer (BD Biosciences), and data were analyzed with FlowJo software (Tree Star). BMDNs were stimulated with eCIRP ([…]) for 2 hours. This time point was selected to maximize the viability and functionality of DLL4^+ neutrophils for downstream experiments, given their relatively short lifespan. After stimulation, cells were washed with PBS and resuspended in 1 mL FACS buffer, and DLL4^+ neutrophils (Ly6G^+DLL4^+) and DLL4^– neutrophils (Ly6G^+DLL4^–) were sorted by flow cytometry using a BD FACSAria IIu cell sorter (BD Biosciences).

Molecule	effect on ZBP1 protein (ZBP1; 10 μM NDI, DLL4^+ neutrophil coculture)	effect on ZBP1, c-GSDMD, c-caspase-3, and p-MLKL (ZBP1; 10 μM NDI, DLL4^– neutrophil coculture)	ZBP1 protein level (Figure 4F) (ZBP1; DLL4^+ neutrophil coculture)	ZBP1 protein level (Figure 4F) (ZBP1; DLL4^– neutrophil coculture)	percentage of DLL4^+ neutrophils (Figure 1D) ([1]; 0.2 μg/mL rmCIRP, 12 h, WT BMDNs, individual replicates)	percentage of DLL4^+ neutrophils (Figure 1D) ([1]; 0.5 μg/mL rmCIRP, 12 h, WT BMDNs, individual replicates)	increase in DLL4^+ neutrophils compared with baseline ([1]; 1 μg/mL eCIRP, 12 hours)	percentage of DLL4^+ neutrophils (Figure 1D) ([1]; 1 μg/mL rmCIRP, 12 h, WT BMDNs, individual replicates)	frequency of DLL4^+ neutrophils (Figure 1E) ([1]; WT BMDNs, 1 μg/mL eCIRP, 12 h, individual replicates)	percentage of DLL4^+ neutrophils (Figure 1C) ([1]; 2 h, individual replicates)	percentage of DLL4^+ neutrophils (Figure 1C) ([1]; 4 h, individual replicates)	percentage of DLL4^+ neutrophils (Figure 1C) ([1]; 6 h, individual replicates)	percentage of DLL4^+ neutrophils (Figure 1C) ([1]; 12 h, individual replicates)	effect on frequency of DLL4^+ neutrophils ([1]; mouse BMDNs)
ECAGSPCHNGGTCEDGI [NDI]	significantly attenuated by NDI treatment	less effect on the DLL4^– neutrophil coculture group	3.384 and 1.384 and 0.9406 and 0.8744 and 0.4031 and 0.6648 and 0.9901 and 0.7708 and 1.063 and 1.037 and 1.784 and 1.376 and 1.24 and 1.14	1.4609 and 1.716 and 1.338 and 0.9958 and 0.6394										
eCIRP: extracellular cold-inducible RNA-binding protein; recombinant murine, produced in our laboratory (protein, UniProt P60824 1-172, looked up) Cold-inducible RNA-binding …: MASDEGKLFVGGLSFDTNEQALEQVFSKYGQISEVVVVKDRETQRSRGFGFVTFENIDDAKDAMMAMNGKSVDGRQIRVDQAGKSSDNRSRGYRGGSAGGRGFFRGGRSRGRGFSRGGGDRGYGGGRFESRSGGYGGSRDYYASRSQGGSYGYRSSGGSYRDSYDSYATHNE					6.79% and 7.39% and 5.07% and 2.01% and 1.58% and 2.94%	9.65% and 8% and 2.23% and 3.04% and 4.63% and 3.6%	greater than 10 fold	9.46% and 10.2% and 10.3% and 9.59% and 14.64% and 11.2% and 19.6%	10.6% and 7.8% and 13.4% and 4.22% and 4.99%	2.37% and 2.69% and 2.61% and 1.38% and 2.29% and 2.02%	2.2% and 3.33% and 2.32% and 3.85% and 1.73% and 1.34%	5.6% and 3.69% and 4.86% and 3.28% and 2.75% and 2.78%	25.8% and 23.2% and 5.76% and 10.3% and 13.1% and 19.7%	significantly increased the frequency (percentage) of DLL4^+ neutrophils in a time- and dose-dependent manner
